Results from paper PMC3336217, “^111In-Labeled Cystine-Knot Peptides Based on the Agouti-Related Protein for Targeting Tumor Angiogenesis” (Journal of Biomedicine and Biotechnology, 2012).
Positions of bridges follow the written chain, without caps; N, C: chain ends. Residues, ends and D or L forms follow the SMILES beside them. *: point of attachment. DOTA = O=C(O)CN1CCN(CC(=O)O)CCN(CC(=O)*)CCN(CC(=O)O)CC1

What was measured:
in vitro = in vitro ADME; conditions: mouse, serum
Protocol: Radiolabeled AgRP* peptides were incubated in 0.01 M PBS (pH 7.4) at 37°C for 24 h and monitored for degradation by HPLC. Stability was also tested by incubating 0.74 MBq (20 μCi) ^111In-DOTA-AgRP-7C or ^111In-DOTA-AgRP-6E in 400 μL of mouse serum at 37°C for 2 h. Afterward, the mixture was re-suspended in 0.5 mL of DMF containing 5 μL of Triton X-100 and centrifuged at 16,000 g for 2 min. The supernatant, which contained >95% of the starting radioactivity, was filtered using a 10 K NanoSep device (Pall Corporation, East Hills, NY, USA). Greater than 99% of the radioactive material passed through this filter. The samples were analyzed by radio-HPLC, and the percentage of intact peptide was determined by quantifying peaks corresponding to the intact peptide and to the degradation products.
Figure 1 Stability analysis of ^111In-DOTA-AgRP-7C (a) and (b), and ^111In-DOTA-AgRP-6E (c) and (d) in PBS and mouse serum. The two radiopeptides were incubated with PBS for 24 h at […], and mouse serum for 2 h at 37°C.

in vivo = conditions: female, athymic nu/nu, mouse, iv, total radioactivity
Protocol: All animal studies were carried out in compliance with federal and local institutional rules for animal experimentation. Approximately, 10^7 U87MG cells were suspended in PBS and subcutaneously implanted in the left shoulders of female athymic nu/nu mice. Tumors were allowed to grow to a size of 0.5 cm (2-3 weeks) before imaging experiments were performed. For biodistribution studies, U87MG tumor-bearing mice (n = 3 for each group) were injected with ^111In-DOTA-AgRP-7C (0.259–0.37 MBq, […]) or ^111In-DOTA-AgRP-6E (0.296–0.444 MBq, 8–12 μCi) via the tail vein and sacrificed at different time points (0.5, 2, 24, and 48 h) after injection (p.i.). Tumor and normal tissues of interest were removed and weighed, and their radioactivity was measured with a γ-counter. Radioactivity uptake was expressed as the percent injected dose per gram of tissue (%ID/g). To test the in vivo αvβ3 integrin targeting specificity of the probe, U87MG tumor-bearing mice (n = 3 for each group) were injected via the tail vein with a mixture of ^111In-DOTA-AgRP-7C (0.259–0.37 MBq, 7–10 μCi) and 330 μg of c(RGDyK). The mice were sacrificed at 2 h p.i. and the biodistribution of the radiolabeled peptide was measured as above.
Quantitative data were expressed as mean ± SD. Means were compared using the Student t-test. A 95% confidence level was chosen to determine the significance between groups, with P values of less than 0.05 indicating significant differences.

For `CC(C)C[C@@H]1NC(=O)[C@@H]2CSSC[C@@H]3NC(=O)[C@H]([C@@H](C)O)NC(=O)[C@H](C)NC(=O)[C@H](C)NC(=O)[C@@H]4CCCN4C(=O)[C@H](CC(=O)O)NC(=O)[C@H](CSSC[C@H](NC(=O)CNC(=O)CN4CCN(CC(=O)O)CCN(CC(=O)O)CCN(CC(=O)O)CC4)C(=O)N[C@@H](C(C)C)C(=O)N[C@@H](CCCNC(=N)N)C(=O)N[C@@H](CC(C)C)C(=O)N[C@@H](Cc4c[nH]cn4)C(=O)N[C@@H](CCC(=O)O)C(=O)N[C@@H](CO)C(=O)N2)NC(=O)[C@H](CSSC[C@@H](C(=O)N[C@@H](CCCNC(=N)N)C(=O)O)NC(=O)[C@H](Cc2ccc(O)cc2)NC(=O)[C@@H]2CSSC[C@H](NC(=O)[C@H](Cc4ccc(O)cc4)NC3=O)C(=O)N[C@@H](C(C)C)C(=O)N[C@@H](CCC(=O)O)C(=O)N[C@@H](CCCNC(=N)N)C(=O)NCC(=O)N[C@@H](CC(=O)O)C(=O)NCC(=O)N[C@@H](CC(N)=O)C(=O)N[C@@H](CCCNC(=N)N)C(=O)N[C@@H](CCCNC(=N)N)C(=O)N2)NC(=O)[C@@H]2CCCN2C(=O)[C@H](C(C)C)NC(=O)[C@H](CCC(N)=O)NC(=O)[C@H](CCC(N)=O)NC(=O)CNC1=O` [111In-DOTA-AgRP-6E, metal not drawn] ({DOTA}-GCVRLHESCLGQQVPCCDPAATCYCVERGDGNRRCYCR-OH; disulfide 2-17, 9-23, 16-37, 25-35), the remaining at 2 h, 1.85 MBq/mL (in vitro) was over 95%, the tissue uptake at 0.5 h (in vivo; Blood uptake) was 1.27 ± 0.53 %ID/g and the tissue uptake at 2 h (in vivo; Blood uptake) was 0.06 ± 0.05 %ID/g. For the same compound, the tissue uptake at 24 h (in vivo; Blood uptake) was 0.01 %ID/g, the tissue uptake at 0.5 h (in vivo; Bone uptake) was 1.18 ± 0.15 %ID/g and the tissue uptake at 2 h (in vivo; Bone uptake) was 0.56 ± 0.1 %ID/g. The tissue uptake at 24 h (in vivo; Bone uptake) was 0.36 ± 0.04 %ID/g, the tissue uptake at 0.5 h (in vivo; Brain uptake) was 0.06 ± 0.01 %ID/g and the tissue uptake at 2 h (in vivo; Brain uptake) was 0.02 ± 0.01 %ID/g. For the same compound, the tissue uptake at 24 h (in vivo; Brain uptake) was 0.02 ± 0.01 %ID/g, the tissue uptake at 0.5 h (in vivo; Heart uptake) was 0.8 ± 0.24 %ID/g and the tissue uptake at 2 h (in vivo; Heart uptake) was 0.18 ± 0.06 %ID/g. It also gave a tissue uptake at 24 h (in vivo; Heart uptake) of 0.12 ± 0.02 %ID/g, a tissue uptake at 0.5 h (in vivo; Intestine uptake) of 2.04 ± 0.54 %ID/g and a tissue uptake at 2 h (in vivo; Intestine uptake) of 1.13 ± 0.14 %ID/g. It also gave a tissue uptake at 24 h (in vivo; Intestine uptake) of 0.93 ± 0.04 %ID/g, a tissue uptake at 0.5 h (in vivo; Kidneys uptake) of 15.4 ± 3.19 %ID/g and a tissue uptake at 2 h (in vivo; Kidneys uptake) of 14.7 ± 1.98 %ID/g. It also gave a tissue uptake at 24 h (in vivo; Kidneys uptake) of 6.87 ± 1.19 %ID/g, a tissue uptake at 0.5 h (in vivo; Liver uptake) of 0.87 ± 0.2 %ID/g and a tissue uptake at 2 h (in vivo; Liver uptake) of 0.52 ± 0.01 %ID/g. For the same compound, the tissue uptake at 24 h (in vivo; Liver uptake) was 0.48 ± 0.02 %ID/g, the tissue uptake at 0.5 h (in vivo; Lung uptake) was 1.86 ± 0.56 %ID/g and the tissue uptake at 2 h (in vivo; Lung uptake) was 0.54 ± 0.12 %ID/g. For the same compound, the tissue uptake at 24 h (in vivo; Lung uptake) was 0.27 ± 0.02 %ID/g, the tissue uptake at 0.5 h (in vivo; Muscle uptake) was 0.64 ± 0.09 %ID/g and the tissue uptake at 2 h (in vivo; Muscle uptake) was 0.15 ± 0.07 %ID/g. The tissue uptake at 24 h (in vivo; Muscle uptake) was 0.07 ± 0.01 %ID/g, the tissue uptake at 0.5 h (in vivo; Pancreas uptake) was 0.57 ± 0.23 %ID/g and the tissue uptake at 2 h (in vivo; Pancreas uptake) was 0.2 ± 0.06 %ID/g. The tissue uptake at 24 h (in vivo; Pancreas uptake) was 0.14 ± 0.01 %ID/g, the tissue uptake at 0.5 h (in vivo; Spleen uptake) was 1.36 ± 0.26 %ID/g and the tissue uptake at 2 h (in vivo; Spleen uptake) was 0.83 ± 0.05 %ID/g. The tissue uptake at 24 h (in vivo; Spleen uptake) was 0.65 ± 0.06 %ID/g, the tissue uptake at 0.5 h (in vivo; Stomach uptake) was 2.02 ± 0.47 %ID/g and the tissue uptake at 2 h (in vivo; Stomach uptake) was 0.87 ± 0.14 %ID/g. For the same compound, the tissue uptake at 24 h (in vivo; Stomach uptake) was 0.53 ± 0.02 %ID/g, the tissue uptake at 0.5 h (in vivo; Tumor uptake) was 1.76 ± 0.34 %ID/g and the tissue uptake at 2 h (in vivo; Tumor uptake) was 1.21 ± 0.21 %ID/g. It also gave a tissue uptake at 24 h (in vivo; Tumor uptake) of 0.89 ± 0.06 %ID/g, a tissue to tissue ratio at 0.5 h (in vivo; Tumor-to-blood ratio) of 1.71 ± 1.21 and a tissue to tissue ratio at 2 h (in vivo; Tumor-to-blood ratio) of 33 ± 23.3. The tissue to tissue ratio at 24 h (in vivo; Tumor-to-blood ratio) was 142 ± 3.39, the tissue to tissue ratio at 0.5 h (in vivo; Tumor-to-muscle ratio) was 2.75 ± 0.28 and the tissue to tissue ratio at 2 h (in vivo; Tumor-to-muscle ratio) was 9.2 ± 3.88. For the same compound, the tissue to tissue ratio at 24 h (in vivo; Tumor-to-muscle ratio) was 13.1 ± 1.94.
